Experimental data reported in US20180224449A1.

biological target: biotinylated OprF1 synthetic peptide (P. aeruginosa); test: pooled monoclonal phages pulled down on biotinylated OprF1 in Bushnell-Haas with 1% Jet-A; unamplified eluate, share of 30 sequenced clones

Row | Substance | relative percent abundance [%]
1 | M13 phage displaying the PPKINIM peptide | 3

biological target: biotinylated Opr86 extracellular loop synthetic peptide; test: solution biopanning on biotinylated Opr86 loop peptide in Bushnell-Haas pH 8.5 with 1% Jet-A, three rounds; share of clones

Row | Substance | % Abundance [%]
2 | M13 phage displaying OPP1 (PRIRKSH) (peptide) | 3
3 | M13 phage displaying OPP2 (MHNLNLL) (peptide) | 2
4 | M13 phage displaying OPP3 (LPSTIHR) (peptide) | 2
5 | M13 phage displaying OPP4 (LRPLMNR) (peptide) | 3
6 | M13 phage displaying OPP5 (IITMKRR) (peptide) | 3
7 | M13 phage displaying OPP6 (RKKSRIR) (peptide) | 2
